Assay results reported in publication PMC4749557 (2015).

T1: recombinant Mtgr1 NHR1 domain (residues 98–206) (mouse, UniProt O70374 98-206, H200K, biotin (biotin-acceptor tag))
T1 sequence: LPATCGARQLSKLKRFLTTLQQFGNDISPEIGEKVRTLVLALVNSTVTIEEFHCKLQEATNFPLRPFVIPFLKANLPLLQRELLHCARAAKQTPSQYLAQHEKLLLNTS

B1: human PRDM14 (residues 238–487) (domain or fragment)
chain: LPQTLDKDSLQLPEGLCLMQTVFGEVPHFGVFCSSFIAKGVRFGPFQGKVVNASEVKTYGDNSVMWEIFEDGHLSHFIDGKGGTGNWMSYVNCARFPKEQNLVAVQCQGHIFYESCKEIHQNQELLVWYGDCYEKFLDIPVSLQVTEPGKQPSGPSEESAEGYRCERCGKVFTYKYYRDKHLKYTPCVDKGDRKFPCSLCKRSFEKRDRLRIHILHVHEKHRPHKCSTCGKCFSQSSSLNKHMRVHSGDR
modifications: biotin (biotin-acceptor tag)

Tests used:
[1] = molecular target: B1
[2] = molecular target: T1, recombinant Mtgr1 NHR1 domain (residues …); experiment: Prdm14 immobilized on beads
[3] = molecular target: Mb(hPRDM14_S14), purified monobody (biotin)
[4] = molecular target: T1, recombinant Mtgr1 NHR1 domain (residues …); experiment: Mtgr1 immobilized on beads

Row | Binder | Kd [1] [nM] | Kd [2] [nM] | Kd [3] [nM] | Kd [4] [nM]
1 | Mb(hPRDM14_S4), purified monobody (designed binder, biotin) GSVSSVPTKLEVVAATPTSLLISWDAPAVTVDLYFITYGETGGNSPVQKFTVPGSKSTATISGLKPGVDYTITVYAQYYYRGWYVGSPISINYRT | 38 |  |  | 
2 | recombinant Prdm14 pre-SET+SET domains (residues 184–373) (domain or fragment, biotin (biotin-acceptor tag)) GFNFTEEELSFVLYGAIASPEHPTDLQHAISGILVPTESSGSNHLHKTLDKDSLQLPEGLCLMQTSFGDVPHFGVFCSDFIAKGVRFGPFRGRVVNASEVKAHRDNSRMWEIFEDGHLSHFIDGKGSGNWMSYVNCARFPKEQNLLAVQHQGQIFYESCRDIQRNQELLVWYGNGYEKFLGVPMNLRVTE |  | 7.1 | 1.7 | 11
3 | B1 |  |  | 2.8 | 
